# Molecular target: ASC^(H118A,F136A,W169A,K174A, L177A-L178A,L192A) (ASC-YFP binding site mutant) (UniProt Q9ULZ3)
# Test: flow cytometry of ASC-YFP speck formation in transfected HEK293 cells
# Conditions: parent: est. 37, read off a plot
# ASC-YFP, sequence (Q9ULZ3 whole entry H118A/F163A/W169A/K174A/L177A/L178A/L192A, change not shown): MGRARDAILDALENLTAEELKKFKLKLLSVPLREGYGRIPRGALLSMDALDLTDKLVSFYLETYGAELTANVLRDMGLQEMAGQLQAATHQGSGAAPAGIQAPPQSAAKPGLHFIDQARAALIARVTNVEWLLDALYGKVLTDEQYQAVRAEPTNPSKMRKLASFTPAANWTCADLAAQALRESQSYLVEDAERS
substance,measurement,value
ASC-YFP (from UniProt Q9ULZ3) H118A; F136A; W169A; K174A; L177A; L178A; L192A,other: ASC specks (%),13%

# From paper PMC8667020
